The test system of the data set is Escherichia coli TOP10. Briefly: shrunken log2 fold change of peptide-encoding DNA abundance (4.5 h post-induction vs induction); higher = less antimicrobial activity (less host growth inhibition). The settings on record: time post-induction: 4.5 h; library: site-saturation at positions 5, 18, 19, 20.
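Note: peptides expressed intracellularly from a pBAD plasmid library in pooled LB shake-flask culture, induced with 0.3% L-arabinose, DNA abundance read by NGS, three biological replicates, DESeq2 with apeglm shrinkage.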

Turning to RRIRIRPPRLPRPRPRPPYIPRP, the “shrunken log2 fold change” value was -0.299.
Under RRIRPRPPRLPRPRPRPQLMPRP stands -0.0192; under RRIRLRPPRLPRPRPRPSPWPRP, -0.149; under RRIRSRPPRLPRPRPRPFWYPRP, -0.185.
The value for RRIRDRPPRLPRPRPRPLLCPRP was 0.503.
The value for RRIRARPPRLPRPRPRPCAGPRP was 0.477; that for RRIRFRPPRLPRPRPRPMIKPRP was -0.749; that for RRIRTRPPRLPRPRPRPALTPRP was 0.251.
Turning to RRIRQRPPRLPRPRPRPGALPRP, the “shrunken log2 fold change” value came out at 0.0446.
Under RRIRNRPPRLPRPRPRPWTPPRP stands -0.0926; under RRIRYRPPRLPRPRPRPTIRPRP, -0.336.
The value for RRIRMRPPRLPRPRPRPRDCPRP was 0.288; that for RRIRDRPPRLPRPRPRPCMHPRP was 0.175; that for RRIRARPPRLPRPRPRPCNAPRP was 0.0237.
The value for RRIRTRPPRLPRPRPRPNPGPRP was -0.0312.
Consider RRIRQRPPRLPRPRPRPKQCPRP, for which the “shrunken log2 fold change” value is -0.288.
The value for RRIRGRPPRLPRPRPRPVCKPRP was 0.124.
The value for RRIRERPPRLPRPRPRPMNKPRP was -0.765.
The value for RRIRTRPPRLPRPRPRPNQFPRP was -0.205; that for RRIRVRPPRLPRPRPRPHRLPRP was -0.0912.
Regarding RRIRCRPPRLPRPRPRPLPQPRP, the “shrunken log2 fold change” value worked out at 0.334.
Under RRIRQRPPRLPRPRPRPVEDPRP stands -0.0933.
The value for RRIRARPPRLPRPRPRPNLEPRP was 0.0621.
Under RRIRLRPPRLPRPRPRPYKVPRP stands -0.756; under RRIRARPPRLPRPRPRPCFIPRP, -0.333; under RRIRWRPPRLPRPRPRPCHEPRP, -0.00847.
Turning to RRIRIRPPRLPRPRPRPVYAPRP, the “shrunken log2 fold change” value is -0.517.
Under RRIRGRPPRLPRPRPRPIPGPRP stands 0.107; under RRIRSRPPRLPRPRPRPYLEPRP, -0.118.
For the sequence RRIRSRPPRLPRPRPRPVRFPRP, the “shrunken log2 fold change” value was determined as 0.488.
Under RRIRERPPRLPRPRPRPGIQPRP stands -0.398; under RRIRWRPPRLPRPRPRPGNWPRP, 0.0533; under RRIRLRPPRLPRPRPRPRPKPRP, 0.294.
For the sequence RRIRNRPPRLPRPRPRPEKCPRP, the “shrunken log2 fold change” value was -0.0684.
As to RRIRTRPPRLPRPRPRPMEFPRP, the “shrunken log2 fold change” value was -0.0956.
For the sequence RRIRSRPPRLPRPRPRPNPQPRP, the “shrunken log2 fold change” value came to 0.126.
The value for RRIRGRPPRLPRPRPRPLREPRP was 1.85; that for RRIRNRPPRLPRPRPRPQRIPRP was -0.47.
Regarding RRIRSRPPRLPRPRPRPDWTPRP, the “shrunken log2 fold change” value was -0.179.
The value for RRIRDRPPRLPRPRPRPQMFPRP was -0.0311; that for RRIRGRPPRLPRPRPRPEFYPRP was 0.0687.
As to RRIRLRPPRLPRPRPRPGWLPRP, the “shrunken log2 fold change” value is 0.0878.
The value for RRIRERPPRLPRPRPRPKRAPRP was -0.145; that for RRIRCRPPRLPRPRPRPYTHPRP was -1.19.
In the case of RRIRKRPPRLPRPRPRPYICPRP, the “shrunken log2 fold change” value amounted to 0.0572.
Under RRIRWRPPRLPRPRPRPPEVPRP stands 0.334; under RRIRYRPPRLPRPRPRPYFIPRP, -0.629; under RRIRPRPPRLPRPRPRPFVFPRP, -0.2.
Under RRIRFRPPRLPRPRPRPVPYPRP stands -0.693.
The value for RRIRKRPPRLPRPRPRPISVPRP was -0.056.
Consider RRIRCRPPRLPRPRPRPSCIPRP, for which the “shrunken log2 fold change” value was -0.253.
In the case of RRIRYRPPRLPRPRPRPHMEPRP, the “shrunken log2 fold change” value is -0.249.
Under RRIRIRPPRLPRPRPRPCPPPRP stands -0.328; under RRIRNRPPRLPRPRPRPWYVPRP, -0.097.
Under RRIRKRPPRLPRPRPRPRKAPRP stands 0.384; under RRIRSRPPRLPRPRPRPLEGPRP, -0.131; under RRIRPRPPRLPRPRPRPVVCPRP, 0.53.
In the case of RRIRMRPPRLPRPRPRPRMWPRP, the “shrunken log2 fold change” value came to 1.04.
For RRIRLRPPRLPRPRPRPEHAPRP, the “shrunken log2 fold change” value is -0.00513.
On to RRIRRRPPRLPRPRPRPACFPRP, for which the “shrunken log2 fold change” value turned out to be 0.456.
Turning to RRIRLRPPRLPRPRPRPRDVPRP, the “shrunken log2 fold change” value is 0.176.
Under RRIRGRPPRLPRPRPRPFNRPRP stands -0.0104; under RRIRMRPPRLPRPRPRPLVYPRP, 0.19; under RRIRTRPPRLPRPRPRPLIRPRP, -0.133.
The value for RRIRFRPPRLPRPRPRPNDWPRP was -0.271; that for RRIRDRPPRLPRPRPRPSQNPRP was 0.113.
Under RRIRCRPPRLPRPRPRPATTPRP stands 0.151.
As to RRIRHRPPRLPRPRPRPCWHPRP, the “shrunken log2 fold change” value was -0.112.
The value for RRIRDRPPRLPRPRPRPAHMPRP was -0.125.
The value for RRIRTRPPRLPRPRPRPSCKPRP was -0.885; that for RRIRPRPPRLPRPRPRPPLFPRP was 0.36.
Regarding RRIRQRPPRLPRPRPRPLGIPRP, the “shrunken log2 fold change” value is -0.381.
The value for RRIRCRPPRLPRPRPRPLQCPRP was -0.279; that for RRIRDRPPRLPRPRPRPIRMPRP was -0.0588; that for RRIRIRPPRLPRPRPRPYYDPRP was -0.0728.
The value for RRIRKRPPRLPRPRPRPFNAPRP was 0.0749; that for RRIRRRPPRLPRPRPRPNSVPRP was -0.0617.
With RRIRTRPPRLPRPRPRPTTAPRP, the “shrunken log2 fold change” value came to 0.0738.
Under RRIRLRPPRLPRPRPRPWSHPRP stands 0.00674; under RRIRKRPPRLPRPRPRPRPYPRP, 0.182.
Turning to RRIRRRPPRLPRPRPRPYSKPRP, the “shrunken log2 fold change” value was -0.129.
Under RRIRPRPPRLPRPRPRPTTRPRP stands 1.65; under RRIRRRPPRLPRPRPRPLCKPRP, 0.167.
The value for RRIRNRPPRLPRPRPRPRSGPRP was -0.0312; that for RRIRCRPPRLPRPRPRPVMDPRP was -0.0102.
The value for RRIRGRPPRLPRPRPRPMSIPRP was 0.0628; that for RRIRGRPPRLPRPRPRPLHLPRP was 0.0533; that for RRIRPRPPRLPRPRPRPCGVPRP was 0.205.
Turning to RRIRDRPPRLPRPRPRPWMDPRP, the “shrunken log2 fold change” value was -0.0272.
Regarding RRIRDRPPRLPRPRPRPHEVPRP, the “shrunken log2 fold change” value came out at 0.0253.
Under RRIRARPPRLPRPRPRPSEIPRP stands -0.00993; under RRIRRRPPRLPRPRPRPVQLPRP, -0.0275; under RRIRHRPPRLPRPRPRPHGDPRP, -0.01.
As for RRIRFRPPRLPRPRPRPEKIPRP, the “shrunken log2 fold change” value amounted to 0.102.
Under RRIRPRPPRLPRPRPRPMCYPRP stands -0.221; under RRIRARPPRLPRPRPRPAECPRP, 0.041.
Take RRIRHRPPRLPRPRPRPWSGPRP: the “shrunken log2 fold change” value is -0.17.
Under RRIRCRPPRLPRPRPRPFTTPRP stands -0.286; under RRIRCRPPRLPRPRPRPVHWPRP, -0.21.
Regarding RRIRHRPPRLPRPRPRPPGDPRP, the “shrunken log2 fold change” value is 0.477.
Under RRIRQRPPRLPRPRPRPYCEPRP stands -0.327; under RRIRRRPPRLPRPRPRPCASPRP, 0.0214; under RRIRSRPPRLPRPRPRPAKWPRP, 0.235.
The value for RRIRQRPPRLPRPRPRPGRGPRP was 0.333; that for RRIRNRPPRLPRPRPRPMGMPRP was -0.0761; that for RRIRSRPPRLPRPRPRPHINPRP was -0.607.
As for RRIRVRPPRLPRPRPRPLHTPRP, the “shrunken log2 fold change” value was -0.0261.
Under RRIRNRPPRLPRPRPRPFESPRP stands 0.00843; under RRIRSRPPRLPRPRPRPCGLPRP, 0.00512.
As to RRIRKRPPRLPRPRPRPQHDPRP, the “shrunken log2 fold change” value was 0.202.
For RRIRTRPPRLPRPRPRPGHTPRP, the “shrunken log2 fold change” value is -0.342.
RRIRNRPPRLPRPRPRPWNCPRP: the “shrunken log2 fold change” value was -0.0415.
For RRIRPRPPRLPRPRPRPQTFPRP, the “shrunken log2 fold change” value was -0.495.
Turning to RRIRQRPPRLPRPRPRPIFQPRP, the “shrunken log2 fold change” value is -0.269.
As for RRIRWRPPRLPRPRPRPFPHPRP, the “shrunken log2 fold change” value is 0.29.
Under RRIRGRPPRLPRPRPRPGYQPRP stands -0.0619; under RRIRMRPPRLPRPRPRPHHTPRP, -0.263; under RRIRDRPPRLPRPRPRPLQTPRP, 0.135.
Under RRIRLRPPRLPRPRPRPGLAPRP stands 0.164; under RRIRFRPPRLPRPRPRPPYMPRP, -0.43.
The value for RRIRQRPPRLPRPRPRPVHLPRP was 0.00299; that for RRIRLRPPRLPRPRPRPGAFPRP was -0.0131; that for RRIRERPPRLPRPRPRPMCKPRP was -0.373.
On to RRIRCRPPRLPRPRPRPQEFPRP, for which the “shrunken log2 fold change” value was -0.366.
As to RRIRDRPPRLPRPRPRPGGNPRP, the “shrunken log2 fold change” value is -0.0716.

Source of the values: the supplement of paper PMC9112550, “Optimization of the antimicrobial peptide Bac7 by deep mutational scanning” (BMC Biology, 2022).
